Literature values as cited in article PMC8481289.

Target: UFC1 (Homo sapiens) (UniProt Q9Y3C8)
Sequence (Q9Y3C8 whole entry): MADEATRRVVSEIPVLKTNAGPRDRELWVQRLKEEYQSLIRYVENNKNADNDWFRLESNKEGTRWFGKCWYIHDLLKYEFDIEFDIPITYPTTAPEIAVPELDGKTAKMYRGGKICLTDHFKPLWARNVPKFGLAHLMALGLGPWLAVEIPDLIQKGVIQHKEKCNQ

Sequence of UBA5 (Q9GZZ9 whole entry): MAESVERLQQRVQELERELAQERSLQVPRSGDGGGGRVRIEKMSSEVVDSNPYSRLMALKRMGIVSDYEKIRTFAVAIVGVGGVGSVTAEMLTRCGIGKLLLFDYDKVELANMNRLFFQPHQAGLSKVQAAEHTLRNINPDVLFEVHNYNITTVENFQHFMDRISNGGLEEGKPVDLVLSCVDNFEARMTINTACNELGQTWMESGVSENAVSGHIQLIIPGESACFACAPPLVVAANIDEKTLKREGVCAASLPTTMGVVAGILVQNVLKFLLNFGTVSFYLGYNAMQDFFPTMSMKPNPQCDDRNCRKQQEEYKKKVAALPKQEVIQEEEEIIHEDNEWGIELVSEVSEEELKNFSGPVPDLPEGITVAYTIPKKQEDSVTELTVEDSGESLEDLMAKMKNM

For UBA5 (from UniProt Q9GZZ9), the Kd is given as 1000 nM.
